Patent publication US12102672B2, “Immunogenic sequences from a phage tail length tape measure protein, bacteria expressing the same and their use in treating a cancer” (INSTITUT GUSTAVE ROUSSY, priority 2017, dated 2024)

Key:
[1] = tested on: prophage 1 and 2 of EH13144; conditions: mitomycin C 1 μg/ml; 37° C. and 42° C.; without capside disruption
Source text: Protocol for phage excision by mitomycin C.
PCR was run to detect specific sequences of the prophage 1 or 2.

[2] = target: HLA-A*0201 with TMP peptide […] on peptide-pulsed autologous cells (human; Enterococcus hirae 13144 (prophage 2, TMP))
[3] = target: HLA-A*0201 with TMP peptide … on peptide-pulsed autologous cells (human; Enterococcus hirae 13144 (prophage 2, TMP))

Row | Compound | prophage 1 and 2 excision from EH13144 [1] | IFNγ ELISPOT after in vitro stimulation [2] | IFNγ ELISPOT after in vitro stimulation [3]
1 | CO[C@@]12[C@H](COC(N)=O)C3=C(C(=O)C(C)=C(N)C3=O)N1C[C@@H]1N[C@@H]12 [mitomycin C] | prophage 1 and 2 excision | – | –
2 | CD8+ T cells from PBMC of six HLA-A2+ healthy volunteers (cells without a defined receptor) | – | 50 % of HV | 50 % of HV
